According to US20140286976A1 (ARGEN X B V, published 2014):

Target: T1, Human c-Met ECD (Flag and strep tag) (human, UniProt P08581 25-932)
T1 construct: also called HMet; Human Wt c-Met; not shown: Flag and strep tag
Experiment: ELISA; mAb immobilized (2 µg/ml), c-Met protein added, streptavidin-HRP

T1 sequence (P08581 25-932): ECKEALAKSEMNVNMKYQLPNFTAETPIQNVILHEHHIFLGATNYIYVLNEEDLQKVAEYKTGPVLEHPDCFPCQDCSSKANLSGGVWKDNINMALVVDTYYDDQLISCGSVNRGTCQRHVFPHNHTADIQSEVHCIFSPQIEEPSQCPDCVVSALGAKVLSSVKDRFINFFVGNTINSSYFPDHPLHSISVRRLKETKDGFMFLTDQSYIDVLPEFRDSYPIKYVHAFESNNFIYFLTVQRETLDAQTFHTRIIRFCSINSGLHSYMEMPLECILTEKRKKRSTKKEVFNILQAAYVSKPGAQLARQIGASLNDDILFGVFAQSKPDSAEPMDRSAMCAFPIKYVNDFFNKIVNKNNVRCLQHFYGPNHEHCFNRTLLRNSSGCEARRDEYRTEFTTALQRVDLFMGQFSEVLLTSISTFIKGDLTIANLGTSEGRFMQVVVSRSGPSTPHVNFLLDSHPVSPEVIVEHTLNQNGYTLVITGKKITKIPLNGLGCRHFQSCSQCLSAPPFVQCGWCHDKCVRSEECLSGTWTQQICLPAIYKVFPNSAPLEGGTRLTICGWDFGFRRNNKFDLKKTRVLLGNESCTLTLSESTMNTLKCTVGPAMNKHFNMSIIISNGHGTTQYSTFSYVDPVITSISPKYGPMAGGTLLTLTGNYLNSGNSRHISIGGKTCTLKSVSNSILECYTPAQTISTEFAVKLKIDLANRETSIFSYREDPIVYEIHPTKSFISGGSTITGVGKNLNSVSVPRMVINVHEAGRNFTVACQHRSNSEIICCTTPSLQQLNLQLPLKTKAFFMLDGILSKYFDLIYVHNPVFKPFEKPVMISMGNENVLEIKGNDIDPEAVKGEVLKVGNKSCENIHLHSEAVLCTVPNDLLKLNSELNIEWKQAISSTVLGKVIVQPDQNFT

B1: 48A2 (antibody, V domains shown)
VH: EVQLVQPGVELRNPGASVKVSCKASGYIFTMNSIDWVRQAPGQGLEWMGRIDPEDGGTKYAQKFQGRVTFTADTSTSTAYVELNSLRSEDTAVYYCARVDDYYLGYDYWGQGTQVTVSS
VL: DIVMTQTPTSVTASAGDKVTINCKSSQSVLFSSNQKNYLAWYQQRLGQSPRLLIYWASIRESGVPDRFSGSGSATDFTLTISNFQPEDAAVYYCQQGYSFPYSFGSGTRLEIR
Which EC50 does the source give for B1 here?
Its EC50 is 0.045 µg/mL.
